Measured values as given in the Human Domainome abundance scans (Beltran et al. 2025).
± gives the uncertainty stated by the source.

B1: Calcium-binding protein 2, residues 155 to 219; numbered along this chain, Q9NPB3 (parent)
chain: RELRDAFREFDTNGDGRISVGELRAALKALLGERLSQREVDEILQDVDLNGDGLVDFEEFVRMMS

Variants of: B1
Test: abundance fitness (aPCA) (normalised: wild type 0, dead -1); higher = more abundant; growth selection in yeast, the domain comes from the species named
Conditions: Homo sapiens

With RELRDAFRGFDTNGDGRISVGELRAALKALLGERLSQREVDEILQDVDLNGDGLVDFEEFVRMMS as the variant, how does the abundance fitness read?
The abundance fitness was -0.016 ± 0.095.

With RELRDAFRHFDTNGDGRISVGELRAALKALLGERLSQREVDEILQDVDLNGDGLVDFEEFVRMMS as the variant, how does the abundance fitness read?
The abundance fitness was -0.429 ± 0.37.

Which abundance fitness does the source give for RELRDAFRQFDTNGDGRISVGELRAALKALLGERLSQREVDEILQDVDLNGDGLVDFEEFVRMMS here?
Its abundance fitness is -0.032 ± 0.068.

For RELRDAFRRFDTNGDGRISVGELRAALKALLGERLSQREVDEILQDVDLNGDGLVDFEEFVRMMS, which abundance fitness is on record?
The abundance fitness was 0.085 ± 0.048.

Which abundance fitness does the source give for RELRDAFRAFDTNGDGRISVGELRAALKALLGERLSQREVDEILQDVDLNGDGLVDFEEFVRMMS here?
Its abundance fitness is -0.189 ± 0.071.

Which abundance fitness does the source give for RELRDAFRYFDTNGDGRISVGELRAALKALLGERLSQREVDEILQDVDLNGDGLVDFEEFVRMMS here?
The abundance fitness was -0.244 ± 0.22.

Which abundance fitness does the source give for RELRDAFRVFDTNGDGRISVGELRAALKALLGERLSQREVDEILQDVDLNGDGLVDFEEFVRMMS here?
The abundance fitness was -0.03 ± 0.083.

For RELRDAFRPFDTNGDGRISVGELRAALKALLGERLSQREVDEILQDVDLNGDGLVDFEEFVRMMS, which abundance fitness is on record?
The abundance fitness was -0.451 ± 0.058.

With RELRDAFRTFDTNGDGRISVGELRAALKALLGERLSQREVDEILQDVDLNGDGLVDFEEFVRMMS as the variant, how does the abundance fitness read?
Its abundance fitness is 0.039 ± 0.074.

With RELRDAFRLFDTNGDGRISVGELRAALKALLGERLSQREVDEILQDVDLNGDGLVDFEEFVRMMS as the variant, how does the abundance fitness read?
Its abundance fitness is -0.201 ± 0.051.

For RELRDAFRDFDTNGDGRISVGELRAALKALLGERLSQREVDEILQDVDLNGDGLVDFEEFVRMMS, which abundance fitness is on record?
Its abundance fitness is 0.003 ± 0.12.

Which abundance fitness does the source give for RELRDAFRSFDTNGDGRISVGELRAALKALLGERLSQREVDEILQDVDLNGDGLVDFEEFVRMMS here?
Its abundance fitness is -0.133 ± 0.046.

Which abundance fitness does the source give for RELRDAFRMFDTNGDGRISVGELRAALKALLGERLSQREVDEILQDVDLNGDGLVDFEEFVRMMS here?
Its abundance fitness is -0.135 ± 0.092.

With RELRDAFRWFDTNGDGRISVGELRAALKALLGERLSQREVDEILQDVDLNGDGLVDFEEFVRMMS as the variant, how does the abundance fitness read?
Its abundance fitness is -0.416 ± 0.069.

With RELRDAFRFFDTNGDGRISVGELRAALKALLGERLSQREVDEILQDVDLNGDGLVDFEEFVRMMS as the variant, how does the abundance fitness read?
The abundance fitness was -0.294 ± 0.16.

For RELRDAQREFDTNGDGRISVGELRAALKALLGERLSQREVDEILQDVDLNGDGLVDFEEFVRMMS, which abundance fitness is on record?
The abundance fitness was -0.803 ± 0.13.

For RELRDAPREFDTNGDGRISVGELRAALKALLGERLSQREVDEILQDVDLNGDGLVDFEEFVRMMS, which abundance fitness is on record?
Its abundance fitness is -0.997 ± 0.11.

For RELRDAIREFDTNGDGRISVGELRAALKALLGERLSQREVDEILQDVDLNGDGLVDFEEFVRMMS, which abundance fitness is on record?
Its abundance fitness is -0.644 ± 0.12.

With RELRDAYREFDTNGDGRISVGELRAALKALLGERLSQREVDEILQDVDLNGDGLVDFEEFVRMMS as the variant, how does the abundance fitness read?
The abundance fitness was -0.259 ± 0.12.

For RELRDACREFDTNGDGRISVGELRAALKALLGERLSQREVDEILQDVDLNGDGLVDFEEFVRMMS, which abundance fitness is on record?
Its abundance fitness is -0.422 ± 0.1.

For RELRDAGREFDTNGDGRISVGELRAALKALLGERLSQREVDEILQDVDLNGDGLVDFEEFVRMMS, which abundance fitness is on record?
The abundance fitness was -1.03 ± 0.058.

With RELRDATREFDTNGDGRISVGELRAALKALLGERLSQREVDEILQDVDLNGDGLVDFEEFVRMMS as the variant, how does the abundance fitness read?
The abundance fitness was -0.713 ± 0.096.

For RELRDANREFDTNGDGRISVGELRAALKALLGERLSQREVDEILQDVDLNGDGLVDFEEFVRMMS, which abundance fitness is on record?
Its abundance fitness is -1.44 ± 0.4.

With RELRDARREFDTNGDGRISVGELRAALKALLGERLSQREVDEILQDVDLNGDGLVDFEEFVRMMS as the variant, how does the abundance fitness read?
The abundance fitness was -0.995 ± 0.062.

For RELRDAMREFDTNGDGRISVGELRAALKALLGERLSQREVDEILQDVDLNGDGLVDFEEFVRMMS, which abundance fitness is on record?
Its abundance fitness is -0.33 ± 0.072.

For RELRDAHREFDTNGDGRISVGELRAALKALLGERLSQREVDEILQDVDLNGDGLVDFEEFVRMMS, which abundance fitness is on record?
Its abundance fitness is -1.18 ± 0.35.

Which abundance fitness does the source give for RELRDAWREFDTNGDGRISVGELRAALKALLGERLSQREVDEILQDVDLNGDGLVDFEEFVRMMS here?
The abundance fitness was -0.142 ± 0.053.

For RELRDAEREFDTNGDGRISVGELRAALKALLGERLSQREVDEILQDVDLNGDGLVDFEEFVRMMS, which abundance fitness is on record?
The abundance fitness was -0.841 ± 0.1.

Which abundance fitness does the source give for RELRDAVREFDTNGDGRISVGELRAALKALLGERLSQREVDEILQDVDLNGDGLVDFEEFVRMMS here?
Its abundance fitness is -0.891 ± 0.078.

For RELRDAKREFDTNGDGRISVGELRAALKALLGERLSQREVDEILQDVDLNGDGLVDFEEFVRMMS, which abundance fitness is on record?
Its abundance fitness is -1.12 ± 0.12.

For RELRDAFEEFDTNGDGRISVGELRAALKALLGERLSQREVDEILQDVDLNGDGLVDFEEFVRMMS, which abundance fitness is on record?
Its abundance fitness is -0.004 ± 0.1.

Which abundance fitness does the source give for RELRDAFKEFDTNGDGRISVGELRAALKALLGERLSQREVDEILQDVDLNGDGLVDFEEFVRMMS here?
The abundance fitness was -0.068 ± 0.15.

With RELRDAFGEFDTNGDGRISVGELRAALKALLGERLSQREVDEILQDVDLNGDGLVDFEEFVRMMS as the variant, how does the abundance fitness read?
The abundance fitness was -0.238 ± 0.096.

Which abundance fitness does the source give for RELRDAFYEFDTNGDGRISVGELRAALKALLGERLSQREVDEILQDVDLNGDGLVDFEEFVRMMS here?
Its abundance fitness is -0.153 ± 0.23.

For RELRDAFCEFDTNGDGRISVGELRAALKALLGERLSQREVDEILQDVDLNGDGLVDFEEFVRMMS, which abundance fitness is on record?
Its abundance fitness is -0.141 ± 0.23.

Which abundance fitness does the source give for RELRDAFQEFDTNGDGRISVGELRAALKALLGERLSQREVDEILQDVDLNGDGLVDFEEFVRMMS here?
Its abundance fitness is -0.1 ± 0.087.

For RELRDAFTEFDTNGDGRISVGELRAALKALLGERLSQREVDEILQDVDLNGDGLVDFEEFVRMMS, which abundance fitness is on record?
The abundance fitness was 0.031 ± 0.11.

For RELRDAFMEFDTNGDGRISVGELRAALKALLGERLSQREVDEILQDVDLNGDGLVDFEEFVRMMS, which abundance fitness is on record?
Its abundance fitness is -0.043 ± 0.083.

For RELRDAFPEFDTNGDGRISVGELRAALKALLGERLSQREVDEILQDVDLNGDGLVDFEEFVRMMS, which abundance fitness is on record?
The abundance fitness was -0.573 ± 0.06.

For RELRDAFDEFDTNGDGRISVGELRAALKALLGERLSQREVDEILQDVDLNGDGLVDFEEFVRMMS, which abundance fitness is on record?
Its abundance fitness is 0.045 ± 0.12.

For RELRDAFIEFDTNGDGRISVGELRAALKALLGERLSQREVDEILQDVDLNGDGLVDFEEFVRMMS, which abundance fitness is on record?
The abundance fitness was -0.156 ± 0.14.
